Measurements taken from the supplement of paper PMC9112550, “Optimization of the antimicrobial peptide Bac7 by deep mutational scanning” (BMC Biology, 2022).

Tested on: Escherichia coli TOP10
Assay: shrunken log2 fold change of peptide-encoding DNA abundance (4.5 h post-induction vs induction); higher = less antimicrobial activity (less host growth inhibition)
Conditions: time post-induction: 4.5 h; library: site-saturation at positions 5, 18, 19, 20
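Note: peptides expressed intracellularly from a pBAD plasmid library in pooled LB shake-flask culture, induced with 0.3% L-arabinose, DNA abundance read by NGS, three biological replicates, DESeq2 with apeglm shrinkage.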

Sequence	shrunken log2 fold change
RRIRHRPPRLPRPRPRPKYKPRP	-0.679
RRIRHRPPRLPRPRPRPVRQPRP	0.0261
RRIRDRPPRLPRPRPRPSGIPRP	-0.0212
RRIRRRPPRLPRPRPRPPGWPRP	-0.0607
RRIRLRPPRLPRPRPRPRIYPRP	-0.636
RRIRNRPPRLPRPRPRPDCWPRP	-0.0568
RRIRKRPPRLPRPRPRPSDGPRP	0.178
RRIRTRPPRLPRPRPRPFIFPRP	-0.447
RRIRGRPPRLPRPRPRPSLLPRP	0.547
RRIRSRPPRLPRPRPRPMGLPRP	0.101
RRIRDRPPRLPRPRPRPLMQPRP	0.823
RRIRYRPPRLPRPRPRPKYKPRP	-0.78
RRIRARPPRLPRPRPRPPDEPRP	0.338
RRIRRRPPRLPRPRPRPNQTPRP	0.0193
RRIRPRPPRLPRPRPRPAPTPRP	0.704
RRIRIRPPRLPRPRPRPCHQPRP	-0.245
RRIRGRPPRLPRPRPRPKSYPRP	0.685
RRIRHRPPRLPRPRPRPQATPRP	0.00115
RRIRDRPPRLPRPRPRPRMWPRP	0.0802
RRIRARPPRLPRPRPRPWPWPRP	0.261
RRIRMRPPRLPRPRPRPRNAPRP	2.06
RRIRMRPPRLPRPRPRPVMCPRP	0.321
RRIRLRPPRLPRPRPRPKNTPRP	-0.333
RRIRFRPPRLPRPRPRPGYIPRP	-0.0716
RRIRNRPPRLPRPRPRPSWVPRP	-0.289

Sequence	shrunken log2 fold change
RRIRWRPPRLPRPRPRPRRNPRP	0.0585
RRIRWRPPRLPRPRPRPMDTPRP	0.128
RRIRWRPPRLPRPRPRPFKMPRP	-0.0125
RRIRDRPPRLPRPRPRPAPHPRP	0.852
RRIRNRPPRLPRPRPRPNLLPRP	-0.112
RRIRCRPPRLPRPRPRPLVPPRP	-0.202
RRIRKRPPRLPRPRPRPNEFPRP	-0.042
RRIRIRPPRLPRPRPRPWFAPRP	-0.31
RRIRSRPPRLPRPRPRPCSAPRP	-0.0813
RRIRYRPPRLPRPRPRPTECPRP	-0.0134
RRIRARPPRLPRPRPRPYGAPRP	-0.206
RRIRHRPPRLPRPRPRPEDVPRP	-0.00992
RRIRTRPPRLPRPRPRPSLRPRP	-0.294
RRIRVRPPRLPRPRPRPMMCPRP	-0.00174
RRIRYRPPRLPRPRPRPWPHPRP	0.0143
RRIRRRPPRLPRPRPRPYQYPRP	-0.0327
RRIRFRPPRLPRPRPRPERHPRP	-0.00647
RRIRCRPPRLPRPRPRPTDHPRP	-0.257
RRIRQRPPRLPRPRPRPMYTPRP	-0.639
RRIRCRPPRLPRPRPRPMLYPRP	-0.189
RRIRCRPPRLPRPRPRPEEFPRP	0.0238
RRIRNRPPRLPRPRPRPYQEPRP	-0.00962
RRIRPRPPRLPRPRPRPGYSPRP	-0.0781
RRIRQRPPRLPRPRPRPAWGPRP	0.34
RRIRGRPPRLPRPRPRPTVVPRP	0.41

Sequence	shrunken log2 fold change
RRIRCRPPRLPRPRPRPMSFPRP	-0.29
RRIRNRPPRLPRPRPRPGAQPRP	0.0369
RRIRNRPPRLPRPRPRPAGVPRP	0.329
RRIRNRPPRLPRPRPRPVSRPRP	-0.152
RRIRFRPPRLPRPRPRPWDPPRP	-0.78
RRIRNRPPRLPRPRPRPPFKPRP	-0.325
RRIRKRPPRLPRPRPRPFCEPRP	-0.0765
RRIRARPPRLPRPRPRPRRNPRP	0.308
RRIRWRPPRLPRPRPRPMAAPRP	0.318
RRIRRRPPRLPRPRPRPHVCPRP	0.0988
RRIRLRPPRLPRPRPRPGIDPRP	-0.0208
RRIRARPPRLPRPRPRPSNIPRP	-0.447
RRIRHRPPRLPRPRPRPMKMPRP	0.043
RRIRGRPPRLPRPRPRPDLIPRP	0.87
RRIRWRPPRLPRPRPRPLRGPRP	1.01
RRIRARPPRLPRPRPRPDSEPRP	0.481
RRIRVRPPRLPRPRPRPFYDPRP	-0.0104
RRIRGRPPRLPRPRPRPCIEPRP	0.0449
RRIRWRPPRLPRPRPRPDLWPRP	0.234
RRIRQRPPRLPRPRPRPMNYPRP	-0.182
RRIRDRPPRLPRPRPRPNMIPRP	-0.0358
RRIRWRPPRLPRPRPRPQDSPRP	0.0627
RRIRPRPPRLPRPRPRPPHQPRP	0.146
RRIRERPPRLPRPRPRPQFPPRP	-0.253
RRIRDRPPRLPRPRPRPPTLPRP	-0.0573

Sequence	shrunken log2 fold change
RRIRQRPPRLPRPRPRPQERPRP	-0.00247
RRIRCRPPRLPRPRPRPLHMPRP	-0.295
RRIRTRPPRLPRPRPRPWNAPRP	-0.00214
RRIRTRPPRLPRPRPRPEPPPRP	0.395
RRIRARPPRLPRPRPRPSVSPRP	-0.457
RRIRERPPRLPRPRPRPRYDPRP	-0.246
RRIRWRPPRLPRPRPRPYSSPRP	-1.07
RRIRERPPRLPRPRPRPVDKPRP	-0.0448
RRIRHRPPRLPRPRPRPHQVPRP	-0.00848
RRIRMRPPRLPRPRPRPENHPRP	0.0929
RRIRKRPPRLPRPRPRPIWIPRP	-0.0325
RRIRHRPPRLPRPRPRPFHYPRP	-0.0791
RRIRTRPPRLPRPRPRPRWRPRP	0.483
RRIRPRPPRLPRPRPRPHMNPRP	-0.6
RRIRDRPPRLPRPRPRPQKMPRP	-0.0885
RRIRLRPPRLPRPRPRPKQKPRP	0.0979
RRIRWRPPRLPRPRPRPNIFPRP	0.0551
RRIRQRPPRLPRPRPRPMYPPRP	-0.329
RRIRLRPPRLPRPRPRPKNFPRP	0.492
RRIRQRPPRLPRPRPRPAQQPRP	0.00707
RRIRCRPPRLPRPRPRPFFMPRP	-0.201
RRIRCRPPRLPRPRPRPLCRPRP	0.0269
RRIRKRPPRLPRPRPRPKTHPRP	0.4
RRIRIRPPRLPRPRPRPIGYPRP	-0.085
RRIRYRPPRLPRPRPRPASWPRP	0.299

Sequence	shrunken log2 fold change
RRIRKRPPRLPRPRPRPWLDPRP	0.296
RRIRWRPPRLPRPRPRPGLNPRP	0.0915
RRIRCRPPRLPRPRPRPGCHPRP	-0.00885
RRIRRRPPRLPRPRPRPKDAPRP	0.0371
RRIRNRPPRLPRPRPRPTRQPRP	0.196
RRIRLRPPRLPRPRPRPLAIPRP	0.221
RRIRTRPPRLPRPRPRPWLHPRP	-0.166
RRIRWRPPRLPRPRPRPYVLPRP	-0.843
RRIRVRPPRLPRPRPRPMYFPRP	-0.569
RRIRKRPPRLPRPRPRPCMHPRP	-0.0309
RRIRMRPPRLPRPRPRPTPIPRP	0.255
RRIRYRPPRLPRPRPRPPARPRP	0.119
RRIRVRPPRLPRPRPRPTMAPRP	0.235
RRIRCRPPRLPRPRPRPPYYPRP	-0.314
RRIRFRPPRLPRPRPRPHTRPRP	-0.223
RRIRMRPPRLPRPRPRPKFPPRP	0.455
RRIRIRPPRLPRPRPRPIHRPRP	-0.197
RRIRVRPPRLPRPRPRPLNCPRP	-0.257
RRIRLRPPRLPRPRPRPPKYPRP	-0.154
RRIRERPPRLPRPRPRPWHYPRP	-0.067
RRIRWRPPRLPRPRPRPWQRPRP	0.551
RRIRCRPPRLPRPRPRPEYVPRP	-0.244
RRIRFRPPRLPRPRPRPNQWPRP	-0.21
RRIRIRPPRLPRPRPRPTNYPRP	-0.745
RRIRVRPPRLPRPRPRPEFEPRP	-0.0823

Sequence	shrunken log2 fold change
RRIRRRPPRLPRPRPRPDTHPRP	-0.254
RRIRDRPPRLPRPRPRPPQKPRP	-0.0517
RRIRERPPRLPRPRPRPHRSPRP	-0.103
RRIRIRPPRLPRPRPRPLMGPRP	-0.166
RRIRHRPPRLPRPRPRPLMFPRP	-0.236
RRIRHRPPRLPRPRPRPFILPRP	-0.675
RRIRMRPPRLPRPRPRPYSIPRP	-0.0122
RRIRRRPPRLPRPRPRPFCMPRP	0.084
RRIRERPPRLPRPRPRPLEQPRP	-0.0811
RRIRARPPRLPRPRPRPLGPPRP	0.337
RRIRFRPPRLPRPRPRPDQTPRP	0.0441
RRIRVRPPRLPRPRPRPVWYPRP	-0.154
RRIRQRPPRLPRPRPRPIVNPRP	-0.0197
RRIRRRPPRLPRPRPRPVMVPRP	-0.153
RRIRSRPPRLPRPRPRPQKNPRP	-0.247
RRIRARPPRLPRPRPRPWTYPRP	0.0209
RRIRVRPPRLPRPRPRPIQGPRP	0.0292
RRIRERPPRLPRPRPRPIPKPRP	0.65
RRIRVRPPRLPRPRPRPHMIPRP	-0.463
RRIRHRPPRLPRPRPRPAKQPRP	0.307
RRIRSRPPRLPRPRPRPYCTPRP	-0.256
RRIRARPPRLPRPRPRPHAHPRP	0.254
RRIRDRPPRLPRPRPRPCYDPRP	-0.129
RRIRDRPPRLPRPRPRPLGAPRP	0.751
RRIRLRPPRLPRPRPRPEYCPRP	0.0552
